21 sequences from the DeepSol protein solubility set can be followed below.

This series is described as follows: soluble on expression in E. coli; label from the status in PepcDB or PDB records.
For the sequence “MGSDKIHHHHHHMDIKNKIKSIFLPEKNDYLDDEEFEYDIENNEEDLKEDNKVHLNDLSRVKYDYRELKDIENQTEEMCLLAVKQDGTIIEFVKDKTYKVCMEAVKQTYKSLKYITNQNEDICIEAVKQNYRALYYINNKTENVLIEAIKNASTYDVMEVFKFVEEQTEDVCLAFIERASKNDVAEILKGIKEQTPAICLEAVKKDGKSLAYVKEQSNSICLEAVKENYSALSCVKEQTEEICIEAVKQNDFALYYVNEQTEKICMEAVKRSYMALQYVNKQTEEICLEAVRIDGRALQYVKEQTEEICLESVRQNGKVLQYVKKQTENICIEAVRGSFEELEIKEILSYVKIPTERIFVEAVKQNGKILKYVENQTELICLEAVRENYNALAYVKEQTEKICLEAVNQSYEALKYVKEQTEEVCLKAVKQDYRMLKYVNNQTEKICLEAVKQNYRALEFVDNQTEKVCLEAVKQNRKALQYVKQKQS”, the “soluble on expression in E. coli” value is “not soluble”.
Consider “MSASFSNNACYMDVMIEIISLRLRLAIASSDRVPLWPFPSRQYMPTRPGWSRWRHPTVVVEPMRNQNFSYHKCNNKIDSSKHISTLSH”, for which the “soluble on expression in E. coli” value was “not soluble”.
The value for “EIGLLLAILLFMKRVTENTRITVATGRLDLTQTGEIAHHDEVLDIPKGVEVYEIEGPFFFGIANRFEEIMNTLGDHPDVRIIRMRHVPFMDSTGMHNLENLIKMSRKEGVSIVLSGVRKDVHEELATAGIVELLGEENVCADIQAALRQAQAIAQGA” was “not soluble”.
Regarding “SSENLDKSNVNEAGKSKSNDSEEGLEDAVEGADEALQKAIKSDSSSPQRVQRPHSSPPRFVTVEELLETARGVTNMALAHEIVVNGDFQIKPVELPENSLKKRVKEIVHKAFWDCLSVQLSEDPPAYDHAIKLVGEIKETLLSFLLPGHTRLRNQITEVLDLDLIKQEAENGALDISRLAEFIIGMMGTLCAPARDEEVKKLKDIKEIVPLFREIFSVLDLMKVDMANFAISSIRPHLMQQSVEYERKKFQEILERQPNSLDFVTQWLEEASEDLMTQKYKHALPVGGMAAGSGDMPRLSPVAVQNYAYLKLLKWDHLQRPFPETVLMDQSRFHELQLQLEQLTILGAVLLVTFSMAAPGISSQADFAEKLKMIVKILLTDMHLPSFHLKDVLTTIGEKVCLEVSSCLSLCGSSPFTTDKETVLKGQIQAVASPDDPIRRIMESRILTFLETYLASGHQKPLPTVPGGLSPVQRELEEVAIKFARLVNYNKMVFCPYYDAILSKILVRS”, the “soluble on expression in E. coli” value is reported as “soluble”.
Regarding “MKYKSGIFAAIHETMQGLHDIGAIDKKTMRGFDKSCLTEIKPLSGGDIKAIREKEALSQAAFAIYLNVGKNHVSAWERGVKKPSGAALKLLTIVKNKGIEAIA”, the “soluble on expression in E. coli” value is given as “not soluble”.
As to “MGSDKIHHHHHHMKVLVAMDEFHGIISSYQANRYVEEAVASQIETADVVQVPLFNGRHELLDSVFLWQSGQKYRIPVHDADMNEVEGVYGQTDTGMTVIEGNLFLKGKKPIVERTSYGLGEMIKHALDNDAKHVVISLGGIDSFDAGAGMLQALGAQFYDDEGRVVDMRQGAGVIKYIRRMDMSNLHPKMETARIQVMSDFSSRLYGKQSEIMQTYDAHQLNHNQAAEIDNLIWYFSELFKSELKIAIGPVERGGAGGGIAAVLNGLYQAEILTSHALVDQLTHLENLVEQADLIIFGEGLNENDQLLETTTLRIAELCHKHQKVAIAICATAEKFDLFESQGVTAMFNTFIDMPETYTDFKMGLQIRHYTVQSLKLLKTHFNVEV”, the “soluble on expression in E. coli” value is reported as “not soluble”.
The value for “MLPHSGRMVLIDRITRYGDDFVEAGAQVKPDHILLAGGMLPYTAFIELMAQAVGAYAGIQARKNARPVRLGFLPGTRKLEIFAQSVPVGTHLPATAHMSIQDAGVWACPTANCVGRMRRKLRPEHSFQTAFWHAPHSTCTAPNTMTEQLTPSEQAHIRRTTMTETVLITGSNRGIGKAAALEHHHHHH” was “not soluble”; that for “MSEEQKTISISELESMNIKQLYEIAKSLGIPRYTSMRKRDLIFAILKAQTESTGYFFGEGVLEIHPEGFGFLRRIEDNLLPSNDDIYISPSQIRKFNLNTGDIISGVIRKPKEGEKYFAMIKIEAINYRPVEAVNDRVNFDNLTPDYPRERFILETDPKIYSTRLIDLFAPIGKGQRGMIVAPPKAGKTTILKEIANGIAENHPDTIRIILLIDERPEEVTDIRESTNAIVIAAPFDMPPDKQVKVAELTLEMAKRLVEFNYDVVILLDSLTRLARVYNIVVPPSGKLLTGGVDPAALYKPKRFFGAARNTREGGSLTIIATALVETGSKMDEVIFEEFKGTGNMELVLSRQLANKRIFPAINLLLSGTRREELLLDEETLKKVWLLRRMLSAMTEEEGLTLILNKLSETSSNEEFLKLIDKEKARY” was “soluble”.
The entry for “MSLFQITKVEARIANYSLHQDRVIITSLGIHDRSRYLIITLTDELENQGFGEAATVMIWSGEAAETGLWIVQNRITPLLTGSHYDHPSEILTILDRALQGNPFLKASIDIAAWDLWARRQEKPVSALIGDRKPVESVPTRFSIGAYSVEDTVRLAVESWEAGIRTLKIKTGVPGLDDVARLKAVRERLGKEPILTIDANGAYQTEDQAVAAIEELLPFNLALVEQPTPRDRIGMMARVKQRVDVPILADESIFTPGELAEALDCDAMDLLSLYPGKNGGFTNSLKMAQTAQNAGKYCVIGSNMETDLGQAAMVCLAASLTAFPVEEYASDLMTGMIYTASSTSPALELNNGRLLTPLGTGFGVEPLHDEGHHHHHH” is “soluble”; for “MGSDKIHHHHHHMAEYFQDDLGFRPFNAQVNHCTRDLGFRLYEPSDVLFASFSDESGMRTYVRTLSFILSKAVADILPGSKLFIEHSLSNGYYCQIKNAHMITPGEIVRIKERMESLIVADIPFRAHCERTEEVAAMFRSMGYEDKADLLETKGMPYSRYYDLDGYPDYYYGSLAPSTGYIGLFGLEPYLDGVLLRIPRRDKPEELAPFVPQPMMRQVFADHDRLLDILQVTHVGSLNKAVDRNDISTMVQVSEAMQEKQIAAIADDIAHKYKEGVRVVLISGPSSSGKTTFCKRLQTQLLTNYIRPYGLSLDDYFINREDSPRDESGDYDFESLYALDLPLFNKDLKQMIAGEEVSLPTYDFATGMRVYKGNTIQLKDGDILILEGIHALNPELIPGVPESSTYKIYVSALTAIGLDAHNRIPSTDNRLIRRLVRDYRYRNYSGLGTLRRWQSVRRGEEKWVFPFQENAHVMFNSAMLYELAVLRAYAEPILQAIPRNEPEYAEARRLLRFLSSFRMIPARLLPNNSLMREFLGGSTFHY” it is “not soluble”; for “MKTSANIATSASGNGLADVLERVLDKGVVIAGDISVSIASTELLNIKIRLLISSVERAKEIGINWWESDPYFSSQNNSLVQANEKLLERVASLESEIKALRSN” it is “not soluble”.
Regarding “MGSDKIHHHHHHMVELQRVTASSLQQSFAGDVYNTGVYLKRTFSDINTHLVTAIGQDSFSQAMLQRFEDEKINTDMVFQSTDKIAGLYAIQTDSKGERSFTYWRNDSAAKQIMQFIGDAAISKISQADMVFFSGISLAVINEEDRDAFWLLIKQCKQAGVSIVFDPNYRARMWHSPDQAKAQFDIAFSVADVVLPGVDDFNQLYGISSVEDIIAFCQPYDINELVIKNGENGINYVINGQQQHFSITPVTNVVDTTSAGDSFNGVYLGARLTGADISTAIKLASQAAGFVIQHKGAIAPKIEFHQFIERQKLIMQ”, the “soluble on expression in E. coli” value is given as “not soluble”.
The value for “MIKTRDQSIFDEMFKRIQSLGFKVYDYKPMTEVPYPFVEMESTDAEYIPNKDDIKGSVELMLSVWGVQKKRKQVSDMASAIFSQALTVESSDVFRWSLNTRQSSIQMLDDTTTVTPLKRAIVTLRFNLR” was “not soluble”; that for “MGGTLLNISPTQHKILKLLIENEKISMREISEKLSVNMSTVSRNFRSLLESGFALKVEEASPGSSGGRKTALYTANPNKFFILGIGVEQNRLIGVVIDAKGNEVEKSEIHRSFRGDEIVNALVDCVEPFKEKYPNTVGISIGMPGIIKENKVIFSSALGIEDLDLGRILSKEFGTEIFVLNDANAAVVGYGFQKKNVVYFLISVPYYLNQPVGVGAGLWLEGSLYQGSNGAAGEFEIDILPSILSGPATLDEVDLKNLSSDSFLKLLSKLSEVASFVSYLLDPETVIFGGDITLFSPEFHSGLAKNVRDHLEKRHISDVEVLFDERGLWTVAFGAAKAFWKRILEDYEFAGKILK” was “not soluble”; that for “MSLKITIYDLAELSGVSASAVSAILNGNWKKRRISAKLAEKVTRIAEEQGYAINRQASMLRSKKSHVIGMIIPKYDNRYFGSIAERFEEMARERGLLPIITCTRRRPELEIEAVKAMLSWQVDWVVATGATNPDKISALCQQAGVPTVNLDLPGSLSPSVISDNYGGAKALTHKILANSARRRGELAPLTFIGGRSSDHNTSERLRGFHDAHRELGLSVPQANILAPGYSKGHVEDCLQERFGSAKTLLQGIFVNSTISLEGVVRWLSQVGLTGSEQPPMGCFDWDPFVYLLGHDIDMVQQDVPAMLDAVFSIIDAGEASQQRIEIPPRLMSSSEGHHHHHH” was “soluble”.
With “MAHHHHHHMDCQALAKSLEQMNHLHNVKYLEAKDLTDFNQKSAYYICHQIAEKQLSKEGGHVVIGLSGGKTPIDVYKNIALVKDIKIDTSKLIFFIIDERYKRDDHKFSNYNNIKFLFESLKINEKEQLYRPDTSKNIVECVRDYNEKIKNMVKKYTKVDIAILGMGSDFHIASLFPNIFFNIYMNNYQNSYIYDESSIKVANSNDTSDNDNLDLLKEYVYFTTTNNFDVRKRITVSLDLLGNASSKIFLLNSTDKLDLWKNMLLKSYVDVNYCLYPAVYLIDSMNTTVVTCGYTNYPQMLEDIYVSNSSLS”, the “soluble on expression in E. coli” value is reported as “soluble”.
Regarding “MAVVMNWNNFSTNWDLKLLSLILAVIVWGGVSGGRTAELELTVPLELRNLPPGFSVASAVPTEASVTVAGPKILLLKLRSERIIIPLDARGVGEGTTLFTGLERRLGLPREATITRLFPATVEVRLIRSKTVQKPLEHHHHHH”, the “soluble on expression in E. coli” value is given as “not soluble”.
As for “RETFKVLLQGVPDGIDLEGLKTDILSLPHIRSVHDIHLWTLDGESHVMTIHVVYCPDDFSSPQAVFDMKESVREKCSAHGIRHATIELDPEGCSCGMESC”, the “soluble on expression in E. coli” value is reported as “not soluble”.
With “MSLSQERFRVKYQIFEESKRAKEIAEAICVEQTIEFPIELTGNSIRENVVGKIEEIQNNHNSTVVTISYPVETVGNEPAQFFNVIMGNCSLFPNLKIIGLQLSPSIENIFPGPRYGISGLRKLLSIYNRPLLATAIKPMGLSTDQLAQMAYNLALGGVDIIKDDHGLADQPFSKFKDRVLKVTEAIHKANRETGFHTIYAPNITSNEQTMLKQAEFVKEAGSGALLVSPALSGFSSFITLRENTDLPILSHPAFLGGYLSIMDFDVLFGTIQRMIGADVVIFPNYGGRFTFSKEDCRKINHGLKKPFGSFKEIFPSPAGGMNIDSCGDIVSFYNKDVVLLIGGALHKAGADLTENVKAFKAQVEKIHVREGHHHHHH”, the “soluble on expression in E. coli” value is “soluble”.
Regarding “MAHHHHHHMKGLHIRPMNDSRLCERIKVLDDYCFPVKYTESYYNDYVRNSFHEFNQLAFYHDILVGSITCRLEKTATDGEHVLYIMTIGVLEAYRHLRIGSRLLQTVLSAVHNDTRNRIVAVTLHVQVGSPALKLYRQFNFEEVQLVENYYTDLDECNAILLRRVVPQPHFEHHKKFK”, the “soluble on expression in E. coli” value is given as “not soluble”.
The value for “QAAVTDYYKTLHLFFISPEKGKEFERSTSIRRRVKAMPHGVNRLFSSLYYYYTLIQERATPRLQRLLDQLEADYPQNTIPETLRQHLRKDSRR” was “not soluble”.
